# Test results taken from US20150299272A1 (UNIVERSITY OF NEWCASTLE UPON TYNE, published 2015).
# B1: Caf1 WT (naturally occurring Caf1 polypeptide monomer from Yersinia pestis; fraction 1 antigen polymer) (other)
# chain: ADLTASTTATATLVEPARITLTYKEGAPITIMDNGNIDTELLVGTLTLGGYKTGTTSTSVNFTDAAGDPMYLTFTSQDGNNHQFTTKVIGKDSRDFDISPKVNGENLVGDDVVLATGSQDFFVRSIGSKGGKLAAGKYTDAVTVTVSNQ
# Molecular target: Caf1-FLAG epitope NT (Yersinia pestis, UniProt P26948 1-170)
# Test: co-expression in E. coli, western blot of partly heat-dissociated polymer
binder,measurement,value
B1,binding result,binds
